# Experiments:
# [1] = biological target: peptidase domain (PD) of Pitta sordida ACE2 (Pitta sordida); test: BLI
# [2] = biological target: peptidase domain (PD) of Pipistrellus abramus angiotensin-converting enzyme 2 (ACE2) (Pipistrellus abramus) (UniProt C7ECT9); test: BLI
substance,measurement,setting,value
RBD of BtPa-BetaCoV/GD2013 (GenBank accession: AIA62343.1) (domain or fragment),Kd,[1],0.138 µM
same,Kd,[2],0.0234 µM

# Source: publication PMC12678408
